Assay: soluble fraction after stress (log2 fold change); higher = more stays soluble; pooled small domains, quantitative proteomics
Conditions: stress: 75 degC
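Note: 20 min heating vs room temperature control held 20 min.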

Sequence | soluble fraction (log2)
HMLRNDEAVMLGRRLLNKHLQAFSVQIKDISHQRIHDLLDELELESLDHLLDDIGLGNRSVFLVAQKLLQ | -1.48
HMLRQRVFRIIQNNINSKNYFVYTKQILAELAGISMRSLNRTLSELQNDRLIIVDSGTIRLFT | -3.12
HMLRVGASVTANGKYWYDSYGSKPFGTANNLSTTVTRIVPGNPYPIHIGSYGWLQESQIQIT | -1.67
HMLSDADLAAFREVFDLVDKDKSGAIEMEEVEELTKLLGLDLTRDEVELLVREIDKDGNGEVDFEEFLLVM | 0.00598
HMLSDHGLNDRQIMVIAGLMNGGTVTVRSIESQYGVSLNTARADVKMLVDAGLLTETGREVNMKVYSWSGK | -2.05
HMLSDSDTLRDLYLSEQIWNVGDLIRVKGKNDDTHPSWEIIRRGTNYITAIDENYKSHKVWLHDIDI | -1.3
HMLSEKELLELLNRAKSNYNGITKKGIEAIALKYQGYSNVEIANLYHVKANHISAWISRARSRLKADY | 0.07
HMLSNLYAVLGVGRRATPDEITAAFDAWNARADAGEPIDDPLWERVRYAWDVLSSPSRRDLYDSLVDDATG | -1.74
HMLSSREEKILNYLNEHQIITRKKAQELLETSQSTAGRVLKIMVDNGLIVQYGGSRSIWYELIK | -1.79
HMLSTGIIIGDNVALRKTASSNGGIITRLDEGTVVKILASNVNAEWYQVEAGTKTGYVNRLYVNID | -1.07
HMLSTGQLIRYYRKRAGMTQAELAEEVEMSEPGIRNYELGNRTPSKAQLSAIARGLGIEPEALI | -0.63
HMLSVKEQTYQIIKEKILNQEYPAGARININELAEELGISNSPIREALSLLEQQGLVISNRSSGATVT | -0.176
HMLSVLKNVDVNSLSDDKIKTYWQQIQKSGYTLDEVEVLAEAQGISPLKIAAFKRRVQSLQQSLQT | 0.311
HMLSYDDTVVIGRNLLENAMKQKNIALEQLTDEVLARLAKELQVESVEAMYAGIGSGKRPSSFIINRLEAH | -0.75
HMLSYFKIIKNGLVREGPASYYKIAENLEIGTIVQAFEKHDDWYLIKTHSGRIGWIVASDVTPQV | -3.62
HMLTAHEAILKELRKMLLTGVLSPGEAVRPEIIGESFGVSAVPVREALRILEGEGQVLNRPHKGYVVT | -0.904
HMLTANPEEVVNRLTSAGEVGVRPLLDVDDPINAISTLLAIREDVYKQFAQFDTVGKSPSEIAHEIDDFL | 0.11
HMLTEERLQIITDTVNSRSSVTIAELSRILDVSPSTVKRDLNILAEAGKITKVRGGAIALGE | -0.285
HMLTGDVDRYKDFFIALEKTSPVPIGFEKIIGGAHGYYHLEDKRIAIDEGMSELQTLKTAIHEIAHAKLHD | -0.312
HMLTGNTAKLFAHLVEVMNPKEFVKINRQTVIVEAGIPRGSVGAAIAKLLETGHLIANASGAYKLT | 0.278
HMLTIEEYLTQLKKLMKDRDAATVRDALSDAEEHLRNAMAGEDPSRLDGIIEEYGSPEEIAAAYKIMEEHT | -0.082
HMLTIQNYFNQVKNIDWEQVPAALSKGHQLVEGASQNNWSAYHSNANIQRVVEAYFQKLNDYLEKN | -0.0425
HMLTKGDRQSIRDSIIYMVGNAPRTLDYIVAESRYSEEDVIEAVRSLLSSHILSIDDSDMISLTRK | -1.02
HMLTNNYKNDKALRFAKNHGIHESNILKLVSLYENAPEKGFNAQSIAELLGITPRSASRILVKLLQHNLIR | -1.8
HMLTPSRVLPYLFEDSFFIDTLSLEKDQVVGFLEYIDERLPPQDLMNKSKEFELIDYLINESEAYLSQ | -0.00122
HMLTQEEITRRRGEILTAAMGVILRKGFLETSMREIAEAAGVGKSTLYDYFPSKDEIMIAYVVD | -0.97

Sequence | soluble fraction (log2)
HMLTRYNVNYYYNGEILQRRKVAEGSAAERITYLSGSLEVTDWYTEADLLRKYDFTEPVTGDLNLYAFARI | -1.42
HMLTSAQLAEIRQAVRAGQASVVEDLLKNGASPNFRMENGDTGFTYAVRADTPQVAEALLKSGKL | -0.00532
HMLTTIRKATVNDKTRIMEIYAYARQFMAEHGNPNQWKNNNPSEETIDNDIAKQEMYVIETDGEVHAVFY | -1.64
HMLVDWNYLEGKRGVTTTPLTPSGKARFGDDVVNVLSDGVLVSTGTPVRVLQVLGNRVLVEPLDG | -0.21
HMLVGRDPQALILGSMPSEKSLEEDEYYAHPRNRFWSLMNWLLAGNKTRPAYKTGIEILSSHGIALWV | -0.358
HMLVIMKTGASEEEIGRVIERIEGEGLSAHVSRGTERTVIGVIGQGVDVHRIAGVLGGMSGVESLVPIS | 0.0604
HMLVLAENMDVIFTRRTLDDHVVVDYKTTIGEMVKNDEIKGENMDELISAVEKDGYELVSSTSGEIIFLND | -1.01
HMLVVEPSAELKTIIDKTASFVARNGPEFEARIKNEQNNAKFSFLQPNDPFNPYYRAKIVELGGTV | 0.0126
HMLVYQRLDKDNFIFEGKTLLNDIYKILDIESNYFEAIRGEADSIAGLLLEIAKSIPTINTEF | -0.362
HMLYEDVQVPNVRYWKSRDAKKQLEDLGLRVLTEHVNDAYIQSDQVIRTSPEIGDTLRTGDTVTLYVSDG | 0.163
HMMKLSKRQEQIIAVVKEHQPVSGERISDILAVSRATLRSDLSFLTLSGILKASPKVGYTYES | -3.4
HMMLVKKMLNGIMMKEITIKELADQYDVSTRTIQLKIKKLGYEWDSKESIYRYVGKESEPLDVDFSTLI | -3
HMMQEIKLEVINNEELRIDNYINLAGIGLSRSYIQKLIKDGVILVNGKEVKSSYKVSLGDIISVQIPDPG | -0.436
HMMVIMRANATEPQIANVVAYVEKNGLNAHLSRGAERTVIGVVGDIRRVSKETFELMDGVDSVMRIS | -0.631
HMNADKEALIAAAYRNSLIENFGTENVERYEERFNKWADKHDRQGMPMYPTIEKWMNEDNIA | 0.0631
HMNADRIVGQTAKVIHPITPDEKGRVMVDNLDWAAAAQNRGESFEVGEEVSIVRIEGVTVYVQK | -0.234
HMNADTVIGKAGTVIEKIDNVAATGAVKIDGKVWTARSERDNITIDEGTLVKAMAIEGVKLIVEPVT | 0.139
HMNAEGLIGREAVALTAVDAHGGRVRLGGEEWSARLSKENGGVSRLSVGDPVRVTDIDGAIAVVAP | 0.118
HMNAEQLAQVRRQKIGFIFQDFRLFPEYTVRDNILIPFYLDHRAPDEQMLHKLTGILGIAGKLHSRPAQL | -0.181
HMNAKVVAPIPGTVLSIDIKVGDVIKIGDRLLVLEAMKMENNIASEKSGTVTAVHVKVGQQVLQNELMIEL | -2.17
HMNALNDLESKIFEEVVKAPEIIMNMTIREFASTVHASPTTIVRMTHKLGFSGWNELKTYLQKQKHQIS | -1.72
HMNALREVNTSILNVRSGAGTNYSKIGSLTQATRVSVISESNGWSKINYNGKVGYVSSQYLS | -1.53
HMNAMKPVLTVSLGVHTDSLSRRLNEEGIIYRWQQAASEQLLLVDSESSSERIAELIHDWRLEQSSS | -0.0158
HMNANTILNSQRILTQLGFNPGPIDGAFGAKTKGALNAFYTSIGKSYDGLLDSNELVELQKALDVSGLKN | -0.524
HMNDADAHASVDAALKHLEALAETTPEVRAALELVRRGPDGRVTVDSFARVAEALREISIAVGAS | 0.024
HMNDELMEQIDEWHKAEKHQEIIDALEQIPEAERDFETTGFLARAYNNIEEYAKAADLLESVRE | 0.0973

Sequence | soluble fraction (log2)
HMNDGEIAAPVSGTLQSFKVEDGQTVSEGDLVAVMEAMKMETQILATKGGTIRLLVKEGDYLQAGHALMTI | -0.667
HMNDGTIRVGTNVTIKPSAKRWATGQNIYYGVKGKTYKVIQMNGNRLLLDKVISWINKGDVYVPGS | -0.741
HMNDIDRFIEALIEQDTLPGTNSRINEDVISEMKMMTSVEDIKAYAIATVGLTGGQVNNALINSGL | -0.072
HMNDIVKIYTTHRIINIEGLAKNEPIMLYTINGTLIDKSVSSNGSAQLHVKGIGVYLVKWANNIVKVIVPN | -4.81
HMNDLDSLWDIWENLNERGIGDKSEEGQELRDAIREFIDTNELNVRVTRNKTNEDLLTDIEDALEVAKNS | -0.588
HMNDLIFSTLAEYDRDTITEIISVVDNTRGIGYEVELVRKDLIAMAAQAEARRDYLPSVIGDVEVFKRNLL | 0.354
HMNDNQNKQMLWELLKDNRAFDNFDNKDYKTIIHLFNETVNTIDHRTPNLDLIKKNKIFIQDIMQKLSNL | -1.46
HMNDSGIIGVVINDHEKYEGHVLEDGFISSSLSALSREIDVAGYFMMVKTVVYEGFFQELKGIGNV | 0.16
HMNDTNEEAVLSIILKNPQATQGAIAKEVGASLSTVKRIMRNLQKSGKLRREGTNRNGSWVVTGQK | -0.289
HMNDTPPELRAALDLLGLKWPLASVELRARYKDLAKQHHPDATGGDKQAEERLKDINRAYSLLKHRLAKQ | -0.143
HMNDTVGMNIRRLRKERGMTQGDLADKAGIQRETISKYESNKLTPPSYNLESIEKALKVPAGTLAQ | 0.176
HMNDYIGVDRAKEIALNHARMNESDVQFAKAKLENDDGVVEYEIEFYFGRTEYDYTIDAVSGNIIEYDVEY | -1.86
HMNEDDQLLKVLLAEPLRLEELYNLDLKPQGPYNLQTWIMVHLTELERDGLIARFPDGRYGPAR | -2.03
HMNEFAYLIKISPEHNNNRYYRMVAEGDNFRIEMGRIGASPVQMKRPMYLWNETYQKKLQEGYTDRTSYTS | -1.85
HMNEIDLEAAKRIALQNAGVESADAAFTKAQLDYDDGVAEYEIEFVAGSTKYEYEISAANGTVLKSSKESV | -0.0387
HMNEIEIHINKLFGKISDSKRKQELMQEITQNLNEKVSDLVSQGQTREQAVKKAIEDFGDIDDLKDELDN | 0.312
HMNEIYHQIKVDNVSDDDISLFQYSGIEFDHADYRRGEYIEFAISNRDLSILNNLGYEYQVVHH | -0.872
HMNEKAALIFNEWSDFVSKDDEANAQIKFDELITLYKKTGYTKIALLEVATKQASNGDIEGALAKYSLLID | 0.128
HMNEKTGTLTVYSSPGWAKVYIDGEYKGITPVMANLTYGDHYVKLTLDGYDSIGNHIDVNSPDQSYTGKF | -0.768
HMNELIGVEQLQDLREAIADHGFAEQRVLNWLYQATKGQVSRLEQLPLPMLTTLHKKLGQWADAEAAASSA | 0.3
HMNELVEATITTQTGRLDKVLTTIFPQYSRSQIQQLLEQGNILVNETLQKGKYKVKAGDKISLTEPAIKE | 0.331
HMNEMSDTITRLLDAAETGIRLRGYHAVSFRDLAEELGIKSSSVHYYFRQKEDLGLAVVERY | 0.000622
HMNENDPRVIKTRRLLLDSFVVLVRKKDFTSISVKDITDSAQVNRATFYAHFQDKYDILEYMVID | 0.0912
HMNENNFIVAMRERLAQFIETSGTSQSRIAKELGVSKSTVSLFLGGTYGGNNQELARNLEQLLSMGAARR | -1.45
